Measurements reported in patent US20170267768A1 (University of California, published 2017).

B1: scFv-19 (scFv)
scFv: QVQLVQSGGGLVQPGGSLRLSCAASGFTFSSYAMHWVRQAPGKGLEWVSVISPPGHNTYYADSVKGRFTISRDNSKNTLYLQMNSLRAEDTAVYYCARASVGATGPFDIWGQGTLVTVSSASTGGGGSGGGGSGGGGSGGGGSSSELTQPPSVSVAPGQTVTITCQGDSLRSYYASWYQQKPGTAPKLLIYGENNRPSGVPDRFSGSSSGTSASLTITGAQAEDEADYYCNSRDSSGTHLTVFGGGTKLTVLG
B2: scFv-7 (scFv)
scFv: QVQLVQSGGGLVQPGGSLRLSCAASGFTFSSYAMHWVRQAPGKGLEWVSVISPAGPNTYYADSVKGRFTISRDNSKNTLYLQMNSLRAEDTAVYYCARASVGATGPFDIWGQGTLVTVSSASTGGGGSGGGGSGGGGSGGGGSSSELTQPPSVSVAPGQTVTITCQGDSLRSYYASWYQQKPGTAPKLLIYGENNRPSGVPDRFSGSSSGTSASLTITGAQAEDEADYYCNSRDSSGTHLTVFGGGTKLTVLG
B3: scFv-10 (scFv)
scFv: QVQLVQSGGGLVQPGGSLRLSCAASGFTFSSYAMHWVRQAPGKGLEWVSAISPPGHNTYYADSVKGRFTISRDNSKNTLYLQMNSLRAEDTAVYYCARASVGATGPFDIWGQGTLVTVSSASTGGGGSGGGGSGGGGSGGGGSSSELTQPPSVSVAPGQTVTITCQGDSLRSYYASWYQQKPGTAPKLLIYGENNRPSGVPDRFSGSSSGTSASLTITGAQAEDEADYYCNSRDSSGTHLTVFGGGTKLTVLG
B4: scFv-4 (scFv)
scFv: QVQLVQSGGGLVQPGGSLRLSCAASGFTFSSYAMHWVRQAPGKGLEWVTVISPHGRNKYYADSVKGRFTISRDNSKNTLYLQMNSLRAEDTAVYYCARASVGATGPFDIWGQGTLVTVSSASTGGGGSGGGGSGGGGSGGGGSSSELTQPPSVSVAPGQTVTITCQGDSLRSYYASWYQQKPGTAPKLLIYGENNRPSGVPDRFSGSSSGTSASLTITGAQAEDEADYYCNSRDSSGTHLTVFGGGTKLTVLG
B5: scFv-5 (scFv)
scFv: QVQLVQSGGGLVQPGGSLRLSCAASGFTFSSYAMHWVRQAPGKGLEWVSVISRRGDNKYYADSVKGRFTISRDNSKNTLYLQMNSLRAEDTAVYYCARASVGATGPFDIWGQGTLVTVSSASTGGGGSGGGGSGGGGSGGGGSSSELTQPPSVSVAPGQTVTITCQGDSLRSYYASWYQQKPGTAPKLLIYGENNRPSGVPDRFSGSSSGTSASLTITGAQAEDEADYYCNSRDSSGTHLTVFGGGTKLTVLG
B6: scFv-2 (scFv)
scFv: QVQLVQSGGGLVQPGGSLRLSCAASGFTFSSYAMHWVRQAPGKGLEWVSVISPAGRNKYYADSVKGRFTISRDNSKNTLYLQMNSLRAEDTAVYYCARASVGATGPFDIWGQGTLVTVSSASTGGGGSGGGGSGGGGSGGGGSSSELTQPPSVSVAPGQTVTITCQGDSLRSYYASWYQQKPGTAPKLLIYGENNRPSGVPDRFSGSSSGTSASLTITGAQAEDEADYYCNSRDSSGTHLTVFGGGTKLTVLG
B7: scFv-13 (scFv)
scFv: QVQLVQSGGGLVQPGGSLRLSCAASGFTFSSYAMHWVRQAPGKGLEWVTVISPTGANTYYADSVKGRFTISRDNSKNTLYLQMNSLRAEDTAVYYCARASVGATGPFDIWGQGTLVTVSSASTGGGGSGGGGSGGGGSGGGGSSSELTQPPSVSVAPGQTVTITCQGDSLRSYYASWYQQKPGTAPKLLIYGENNRPSGVPDRFSGSSSGTSASLTITGAQAEDEADYYCNSRDSSGTHLTVFGGGTKLTVLG
B8: scFv-14 (scFv)
scFv: QVQLVQSGGGLVQPGGSLRLSCAASGFTFSSYAMHWVRQAPGKGLEWVTVISPAGPNKYYADSVKGRFTISRDNSKNTLYLQMNSLRAEDTAVYYCARASVGATGPFDIWGQGTLVTVSSASTGGGGSGGGGSGGGGSGGGGSSSELTQPPSVSVAPGQTVTITCQGDSLRSYYASWYQQKPGTAPKLLIYGENNRPSGVPDRFSGSSSGTSASLTITGAQAEDEADYYCNSRDSSGTHLTVFGGGTKLTVLG
B9: scFv-1 (scFv)
scFv: QVQLVQSGGGLVQPGGSLRLSCAASGFTFSSYAMHWVRQAPGKGLEWVSVISPAGNNTYYADSVKGRFTISRDNSKNTLYLQMNSLRAEDTAVYYCARASVGATGPFDIWGQGTLVTVSSASTGGGGSGGGGSGGGGSGGGGSSSELTQPPSVSVAPGQTVTITCQGDSLRSYYASWYQQKPGTAPKLLIYGENNRPSGVPDRFSGSSSGTSASLTITGAQAEDEADYYCNSRDSSGTHLTVFGGGTKLTVLG
B10: scFv-17 (scFv)
scFv: QVQLVQSGGGLVQPGGSLRLSCAASGFTFSSYAMHWVRQAPGKGLEWVTVISPPGSNKYYADSVKGRFTISRDNSKNTLYLQMNSLRAEDTAVYYCARASVGATGPFDIWGQGTLVTVSSASTGGGGSGGGGSGGGGSGGGGSSSELTQPPSVSVAPGQTVTITCQGDSLRSYYASWYQQKPGTAPKLLIYGENNRPSGVPDRFSGSSSGTSASLTITGAQAEDEADYYCNSRDSSGTHLTVFGGGTKLTVLG
B11: scFv-15 (scFv)
scFv: QVQLVQSGGGLVQPGGSLRLSCAASGFTFSSYAMHWVRQAPGKGLEWVSVISPHGSNKYYADSVKGRFTISRDNSKNTLYLQMNSLRAEDTAVYYCARASVGATGPFDIWGQGTLVTVSSASTGGGGSGGGGSGGGGSGGGGSSSELTQPPSVSVAPGQTVTITCQGDSLRSYYASWYQQKPGTAPKLLIYGENNRPSGVPDRFSGSSSGTSASLTITGAQAEDEADYYCNSRDSSGTHLTVFGGGTKLTVLG
B12: scFv-6 (scFv)
scFv: QVQLVQSGGGLVQPGGSLRLSCAASGFTFSSYAMHWVRQAPGKGLEWVSVISNNGHNKYYADSVKGRFTISRDNSKNTLYLQMNSLRAEDTAVYYCARASVGATGPFDIWGQGTLVTVSSASTGGGGSGGGGSGGGGSGGGGSSSELTQPPSVSVAPGQTVTITCQGDSLRSYYASWYQQKPGTAPKLLIYGENNRPSGVPDRFSGSSSGTSASLTITGAQAEDEADYYCNSRDSSGTHLTVFGGGTKLTVLG
B13: scFv-16 (scFv)
scFv: QVQLVQSGGGLVQPGGSLRLSCAASGFTFSSYAMHWVRQAPGKGLEWVSVISNNGHNTYYADSVKGRFTISRDNSKNTLYLQMNSLRAEDTAVYYCARASVGATGPFDIWGQGTLVTVSSASTGGGGSGGGGSGGGGSGGGGSSSELTQPPSVSVAPGQTVTITCQGDSLRSYYASWYQQKPGTAPKLLIYGENNRPSGVPDRFSGSSSGTSASLTITGAQAEDEADYYCNSRDSSGTHLTVFGGGTKLTVLG
B14: scFv-8 (scFv)
scFv: QVQLVQSGGGLVQPGGSLRLSCAASGFTFSSYAMHWVRQAPGKGLEWVTVISPSGHNTYYADSVKGRFTISRDNSKNTLYLQMNSLRAEDTAVYYCARASVGATGPFDIWGQGTLVTVSSASTGGGGSGGGGSGGGGSGGGGSSSELTQPPSVSVAPGQTVTITCQGDSLRSYYASWYQQKPGTAPKLLIYGENNRPSGVPDRFSGSSSGTSASLTITGAQAEDEADYYCNSRDSSGTHLTVFGGGTKLTVLG
B15: scFv-18 (scFv)
scFv: QVQLVQSGGGLVQPGGSLRLSCAASGFTFSSYAMHWVRQAPGKGLEWVSVISPAGTNTYYADSVKGRFTISRDNSKNTLYLQMNSLRAEDTAVYYCARASVGATGPFDIWGQGTLVTVSSASTGGGGSGGGGSGGGGSGGGGSSSELTQPPSVSVAPGQTVTITCQGDSLRSYYASWYQQKPGTAPKLLIYGENNRPSGVPDRFSGSSSGTSASLTITGAQAEDEADYYCNSRDSSGTHLTVFGGGTKLTVLG
B16: scFv-9 (scFv)
scFv: QVQLVQSGGGLVQPGGSLRLSCAASGFTFSSYAMHWVRQAPGKGLEWVTVISPNGHNTYYADSVKGRFTISRDNSKNTLYLQMNSLRAEDTAVYYCARASVGATGPFDIWGQGTLVTVSSASTGGGGSGGGGSGGGGSGGGGSSSELTQPPSVSVAPGQTVTITCQGDSLRSYYASWYQQKPGTAPKLLIYGENNRPSGVPDRFSGSSSGTSASLTITGAQAEDEADYYCNSRDSSGTHLTVFGGGTKLTVLG
B17: scFv-11 (scFv)
scFv: QVQLVQSGGGLVQPGGSLRLSCAASGFTFSSYAMHWVRQAPGKGLEWVAVISHHGSNTYYADSVKGRFTISRDNSKNTLYLQMNSLRAEDTAVYYCARASVGATGPFDIWGQGTLVTVSSASTGGGGSGGGGSGGGGSGGGGSSSELTQPPSVSVAPGQTVTITCQGDSLRSYYASWYQQKPGTAPKLLIYGENNRPSGVPDRFSGSSSGTSASLTITGAQAEDEADYYCNSRDSSGTHLTVFGGGTKLTVLG

The binders below were run against T1, human EphA2 on OVCAR-3 and U-251 cells (human, UniProt P29317 24-976) (assay: CLIA: scFv-decorated fluorescent NTA(Ni) liposomes on EphA2-expressing cells, FACS).
T1 construct: whole, on cells; also called EphA2 receptors
Description: To test the anti-EphA2 activity of these variant scFvs, the binding and internalization of liposomes externally decorated with these Abs was assayed on cell lines expressing EphA2. A rapid high-throughput Chelated Ligand-induced Internalization Assay (CLIA) (Nielsen et al., BMC immunology, 2006, 7:24) was used to screen anti-EphA2-scFv-targeted liposomes for binding and internalization assessment. Two cell lines that express high levels of EphA2 receptors, OVCAR-3 and U-251, were tested, as well as a murine EphA2-expressing mouse cell line, CT-26 (to test whether cross-reactivity to murine EphA2 was retained by the engineered scFvs). Via nickel-binding by each scFv's c-terminal His6 tag, the scFvs were bound to fluorescently labeled liposomes comprising an NTA(Ni) conjugated lipid (Dil5-NTA liposomes).
Dil5-NTA liposomes were prepared as follows. The NTA conjugated lipid, DOD-Tri-NTA, was synthesized as described in Huang et al., Bioconjugate chemistry, 2006, vol. 17, p. 1592-1600. Hydrogenated soy phosphatidylcholine (HSPC), cholesterol, methoxy-PEG(2000)-distearoylphosphatidylethanolamine (PEG-DSPE), DOD-tri-NTA, and a fluorescent lipid dye, Dil5, (ThermoFisher® Invitrogen® Molecular Probes™, cat. # D12370) were combined in a chloroform solution at the molar ratio of 100:66.7:5:0.5:0.3 respectively and the solution evaporated under vacuum to dryness forming a lipid film. The film was hydrated in HEPES-buffered physiological saline (“HBS-6.5”—5 mM HEPES, 144 mM NaCl pH 6.5) at 68° C., the resulting lipid suspension was subjected to several cycles of freezing (dry ice-acetone) and thawing (68C), and extruded through two stacked polycarbonate membranes (Whatman Nuclepore, USA) with the pore size of 200 nm (6 times) and 100 nm (10 times) using Lipex™ thermobarrel extruder (Northern Lipids, Canada). This protocol typically produces unilamellar vesicles with the z-average size of 100-110 nm and polydispersity index less than 0.1. The extruded liposomes were chilled to room temperature, purified by gel-chromatography on a Sephadex® G-75 (GE Healthcare) column eluted with HBS-6.5, and then sterilized by passage through a 0.2-μm filter. The concentration of liposomal phospholipid was then determined after acid digestion using spectrophotometric phosphomolybdate method.

T1 sequence (P29317 24-976): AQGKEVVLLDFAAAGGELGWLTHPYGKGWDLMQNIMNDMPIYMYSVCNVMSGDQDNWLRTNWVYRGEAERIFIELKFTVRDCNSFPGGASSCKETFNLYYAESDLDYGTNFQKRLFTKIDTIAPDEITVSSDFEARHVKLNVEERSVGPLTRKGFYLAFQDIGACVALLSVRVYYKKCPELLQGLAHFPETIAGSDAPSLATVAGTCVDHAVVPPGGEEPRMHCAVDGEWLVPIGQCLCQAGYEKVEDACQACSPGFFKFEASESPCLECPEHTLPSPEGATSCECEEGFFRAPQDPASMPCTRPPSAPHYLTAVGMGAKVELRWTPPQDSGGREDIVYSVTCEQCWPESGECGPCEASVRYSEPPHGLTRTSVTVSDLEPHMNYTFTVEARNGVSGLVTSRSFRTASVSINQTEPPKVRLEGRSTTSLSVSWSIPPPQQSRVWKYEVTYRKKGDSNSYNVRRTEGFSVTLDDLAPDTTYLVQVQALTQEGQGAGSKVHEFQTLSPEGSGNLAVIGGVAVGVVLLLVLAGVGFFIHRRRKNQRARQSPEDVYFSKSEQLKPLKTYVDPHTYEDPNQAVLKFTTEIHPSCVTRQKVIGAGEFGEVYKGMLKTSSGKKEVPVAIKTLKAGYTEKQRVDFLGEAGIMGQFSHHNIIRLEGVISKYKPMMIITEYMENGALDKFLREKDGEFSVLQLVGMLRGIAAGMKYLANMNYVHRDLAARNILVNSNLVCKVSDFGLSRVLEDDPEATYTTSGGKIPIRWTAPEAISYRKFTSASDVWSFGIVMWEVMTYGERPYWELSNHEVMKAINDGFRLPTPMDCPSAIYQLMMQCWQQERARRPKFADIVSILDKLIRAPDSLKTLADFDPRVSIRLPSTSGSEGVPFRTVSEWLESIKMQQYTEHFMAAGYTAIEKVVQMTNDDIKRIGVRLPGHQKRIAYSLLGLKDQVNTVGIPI

Binder	binding result
B1	binds
B2	binds
B3	binds
B4	binds
B5	binds
B6	binds
B7	binds
B8	binds
B9	binds
B10	binds
B11	binds
B12	binds
B13	binds
B14	binds
B15	binds
B16	binds
B17	binds
